Consider 6 sequences from the Immune Epitope Database (IEDB).

By Kd is commonly meant the concentration at which binding is half-saturated.

In assay [1] the target is HLA-A*01:01. Description: IEDB peptide-MHC binding, purified MHC/direct/fluorescence; filed as Kd, often an IC50 or EC50 that approximates it; ≥ and ≤ were set here for values at or beyond the usual limits of such assays.
The target in another assay is HLA-A*02:01. Described as above.
The target of a further assay is HLA-A*03:01. The description is as above.
The target of a further assay is HLA-A*11:01. Described as above.
Another assay deals with HLA-A*24:03. The description is as above.
In another assay the target is HLA-A*26:01. The assay is described as above.
The target of a further assay is HLA-A*31:01. The description is as above.
The target in the next assay is HLA-A*69:01. The assay is described as above.
In the next assay the target is HLA-B*07:02. The assay is described as above.
Another assay deals with HLA-B*08:01. The assay is described as above.
Assay [2] has as its target HLA-B*15:01. The assay is described as above.
The target in the next assay is HLA-B*27:05. The assay is described as above.
For a further assay, the target named is HLA-B*35:01. The description is as above.
Another assay deals with HLA-B*40:01. The assay is described as above.
A further assay has as its target HLA-B*44:02. The assay is described as above.
The target in another assay is HLA-B*58:01. Described as above.
In a further assay the target is HLA-A*30:01. Described as above.
The next assay deals with HLA-A*26:02. Described as above.
In a further assay the target is HLA-A*26:03. The description is as above.
Assay [3] has as its target HLA-A*68:02. Described as above. The note with it: source organism: Vibrio vulnificus YJ016.
In assay [4] the target is HLA-B*15:17. Described as above. The note with it: source organism: Vibrio vulnificus YJ016.
The target in the next assay is HLA-B*18:01. The description is as above.
Another assay deals with HLA-B*39:01. The description is as above. The note with it: source organism: Vibrio vulnificus YJ016.
The target of the next assay is HLA-B*48:01. The assay is described as above.
In assay [5] the target is HLA-B*57:01. Described as above. The conditions noted are these: source organism: Vibrio vulnificus YJ016.
The target of another assay is HLA-B*73:01. The assay is described as above. The conditions noted are these: source organism: Vibrio vulnificus YJ016.
The next assay concerns the target HLA-B*08:02. The assay is described as above. The note with it: source organism: Giardia lamblia ATCC 50803.
For another assay, the target named is HLA-B*46:01. Described as above. The conditions noted are these: source organism: Giardia lamblia ATCC 50803.
The target of assay [6] is HLA-A*01:01. Description: IEDB peptide-MHC binding, purified MHC/competitive/fluorescence; filed as Kd, often an IC50 or EC50 that approximates it; ≥ and ≤ were set here for values at or beyond the usual limits of such assays. The note with it: source organism: Giardia lamblia ATCC 50803.
The target of assay [7] is HLA-A*68:02. The description is as above. The note with it: source organism: Giardia lamblia ATCC 50803.
The target of assay [8] is HLA-B*15:01. Described as above. The conditions noted are these: source organism: Giardia lamblia ATCC 50803.
For assay [9], the target named is HLA-B*15:17. The assay is described as above. The conditions noted are these: source organism: Giardia lamblia ATCC 50803.
Assay [10] has as its target HLA-B*57:01. The assay is described as above. The note with it: source organism: Giardia lamblia ATCC 50803.
Setting [11] is: source organism: Escherichia coli O157:H7.
The mark [12] stands for this setting: source organism: Giardia intestinalis.
Setting [13] is: source organism: Vibrio vulnificus YJ016.
Setting [14] is: source organism: Giardia lamblia ATCC 50803.
[15] abbreviates: source organism: Rickettsia prowazekii.

For PSSKPDWFY, the Kd in the assay with HLA-A*01:01 [1] (setting [11]) is 0.0197 µM; in the assay with HLA-A*02:01 (setting [11]), at least 20 µM; in the assay with HLA-A*03:01 (setting [11]) it was at least 20 µM; with HLA-A*11:01 (setting [11]), at least 20 µM; in the assay with HLA-A*24:03 (setting [11]), at least 20000 nM; in the assay with HLA-A*26:01 (setting [11]) it was at least 20 µM. For the same sequence, the Kd in the assay with HLA-A*31:01 (setting [11]) is at least 20 µM; in the assay with HLA-A*69:01 (setting [11]), at least 20 µM; with HLA-B*07:02 (setting [11]) it was at least 20 µM; with HLA-B*08:01 (setting [11]), at least 20 µM; in the assay with HLA-B*15:01 [2] (setting [11]) it was 15.2 µM; with HLA-B*27:05 (setting [11]), at least 20 µM. Further, the Kd in the assay with HLA-B*35:01 (setting [11]) is 1040 nM; in the assay with HLA-B*40:01 (setting [11]), at least 20 µM; with HLA-B*44:02 (setting [11]), at least 20 µM; with HLA-B*58:01 (setting [11]), at least 20 µM.

With DYAMHGTVF, the Kd with HLA-A*01:01 [1] (setting [12]) was at least 20 µM; in the assay with HLA-A*02:01 (setting [12]), at least 20 µM; with HLA-A*03:01 (setting [12]), at least 20 µM; with HLA-A*24:03 (setting [12]), 2360 nM; with HLA-A*26:01 (setting [12]), at least 20 µM; with HLA-A*30:01 (setting [12]) it was at least 58.5 µM. Moreover, the Kd with HLA-A*69:01 (setting [12]) was at least 20 µM; in the assay with HLA-B*07:02 (setting [12]) it was 8.71 µM; in the assay with HLA-B*08:01 (setting [12]), 14.6 µM; with HLA-B*15:01 [2] (setting [12]), 3.8 µM; with HLA-B*27:05 (setting [12]) it was at least 20 µM; with HLA-B*35:01 (setting [12]), 62.1 nM. For the same sequence, the Kd was at least 20 µM with HLA-B*40:01 (setting [12]), at least 20 µM with HLA-B*44:02 (setting [12]) and at least 10 µM in the assay with HLA-B*58:01 (setting [12]).

As for KRFYQTVGF, the Kd with HLA-A*01:01 [1] (setting [13]), in the assay with HLA-A*02:01 (setting [13]), in the assay with HLA-A*03:01 (setting [13]), in the assay with HLA-A*11:01 (setting [13]), in the assay with HLA-A*26:02 (setting [13]) and with HLA-A*26:03 (setting [13]) was at least 20 µM in each case. In addition, the Kd in the assay with HLA-A*31:01 (setting [13]), with HLA-A*68:02 [3], in the assay with HLA-A*69:01 (setting [13]), with HLA-B*07:02 (setting [13]), in the assay with HLA-B*08:01 (setting [13]) and with HLA-B*15:01 [2] (setting [13]) was at least 20 µM throughout. In addition, the Kd in the assay with HLA-B*15:17 [4] was at least 20 µM; with HLA-B*18:01 (setting [13]), at least 20 µM; with HLA-B*27:05 (setting [13]), 0.0895 µM; with HLA-B*39:01, at least 20 µM; with HLA-B*48:01 (setting [13]) it was at least 20 µM; in the assay with HLA-B*57:01 [5] it was at least 20 µM. Moreover, the Kd with HLA-B*58:01 (setting [13]) was at least 20 µM; with HLA-B*73:01, 4 µM.

Take FMGRLGPEY: the dissociation constant (Kd) in the assay with HLA-A*01:01 [1] (setting [14]) was 4.09 µM; with HLA-A*02:01 (setting [14]), at least 20 µM; with HLA-A*03:01 (setting [14]), at least 20 µM; with HLA-A*11:01 (setting [14]), at least 20 µM; with HLA-A*24:03 (setting [14]), at least 5000 nM; in the assay with HLA-A*26:01 (setting [14]), at least 20 µM. In addition, the Kd with HLA-A*30:01 (setting [14]) is 16.1 µM; with HLA-A*31:01 (setting [14]), at least 20 µM; with HLA-A*69:01 (setting [14]), at least 20 µM; in the assay with HLA-B*08:01 (setting [14]) it was at least 20 µM; with HLA-B*15:01 [2] (setting [14]), 0.14 µM; with HLA-B*27:05 (setting [14]) it was at least 20 µM. The Kd with HLA-B*35:01 (setting [14]) is 117 nM; in the assay with HLA-B*40:01 (setting [14]), at least 20 µM; with HLA-B*44:02 (setting [14]) it was at least 20 µM; with HLA-B*58:01 (setting [14]), at least 20 µM.

In the case of QFAGGSFDF, the Kd with HLA-A*01:01 [1] (setting [15]) is at least 20 µM; with HLA-A*02:01 (setting [15]) it was at least 20 µM; in the assay with HLA-A*03:01 (setting [15]), at least 20 µM; in the assay with HLA-A*11:01 (setting [15]), at least 10 µM; in the assay with HLA-A*24:03 (setting [15]), 336 nM; with HLA-A*26:01 (setting [15]) it was at least 20 µM. Besides, the Kd with HLA-A*69:01 (setting [15]) was at least 20 µM; with HLA-B*07:02 (setting [15]) it was at least 20 µM; with HLA-B*08:01 (setting [15]) it was at least 20 µM; in the assay with HLA-B*15:01 [2] (setting [15]), 0.35 µM; with HLA-B*35:01 (setting [15]) it was 14.1 nM; in the assay with HLA-B*40:01 (setting [15]), at least 20 µM. Besides, the Kd is at least 20 µM with HLA-B*44:02 (setting [15]) and 0.0416 µM with HLA-B*58:01 (setting [15]).

On to KSNRIPFLY, for which the Kd with HLA-A*02:01 (setting [14]) was at least 20 µM; with HLA-A*03:01 (setting [14]), 0.022 µM; with HLA-A*11:01 (setting [14]), 0.007 µM; in the assay with HLA-A*26:01 (setting [14]), at least 20 µM; with HLA-A*26:02 (setting [14]), at least 20 µM; in the assay with HLA-A*26:03 (setting [14]) it was at least 20 µM. The Kd with HLA-A*31:01 (setting [14]) is 2.37 µM; with HLA-B*07:02 (setting [14]), at least 20 µM; in the assay with HLA-B*08:01 (setting [14]), at least 20 µM; with HLA-B*08:02, at least 20 µM; with HLA-B*18:01 (setting [14]), at least 20 µM; in the assay with HLA-B*27:05 (setting [14]) it was at least 20 µM. Besides, the Kd in the assay with HLA-B*40:01 (setting [14]) was at least 20 µM; with HLA-B*46:01, at least 20 µM; with HLA-B*48:01 (setting [14]), at least 20 µM; with HLA-B*58:01 (setting [14]) it was 0.002 µM; in the assay with HLA-A*01:01 [6] it was 202 nM; with HLA-A*68:02 [7], at least 20 µM. For the same sequence, the Kd with HLA-B*15:01 [8] was determined as 212 nM; with HLA-B*15:17 [9], 10 nM; with HLA-B*57:01 [10], 243 nM.
